The supplement of paper PMC9112550, “Optimization of the antimicrobial peptide Bac7 by deep mutational scanning” (BMC Biology, 2022)

Tested on: Escherichia coli TOP10
Assay: shrunken log2 fold change of peptide-encoding DNA abundance (4.5 h post-induction vs induction); higher = less antimicrobial activity (less host growth inhibition)
Conditions: time post-induction: 4.5 h; library: site-saturation at positions 5, 18, 19, 20
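Also: peptides expressed intracellularly from a pBAD plasmid library in pooled LB shake-flask culture, induced with 0.3% L-arabinose, DNA abundance read by NGS, three biological replicates, DESeq2 with apeglm shrinkage.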

Sequence	shrunken log2 fold change
RRIRVRPPRLPRPRPRPCNKPRP	-0.311
RRIRVRPPRLPRPRPRPCFHPRP	-0.395
RRIRTRPPRLPRPRPRPWSDPRP	-0.0131
RRIRLRPPRLPRPRPRPKIAPRP	-0.203
RRIRFRPPRLPRPRPRPKDDPRP	-0.052
RRIRSRPPRLPRPRPRPMYIPRP	-0.354
RRIRFRPPRLPRPRPRPWDLPRP	2.08
RRIRNRPPRLPRPRPRPVSKPRP	0.124
RRIRERPPRLPRPRPRPFRLPRP	-0.51
RRIRMRPPRLPRPRPRPERWPRP	1.5
RRIRARPPRLPRPRPRPFLNPRP	-0.248
RRIRSRPPRLPRPRPRPQIFPRP	0.0933
RRIRVRPPRLPRPRPRPRVIPRP	-0.0308
RRIRLRPPRLPRPRPRPGPRPRP	0.693
RRIRHRPPRLPRPRPRPPALPRP	-0.00181
RRIRLRPPRLPRPRPRPMTSPRP	0.142
RRIRARPPRLPRPRPRPQQHPRP	0.284
RRIRNRPPRLPRPRPRPLWDPRP	-0.00945
RRIRMRPPRLPRPRPRPFQAPRP	0.242
RRIRIRPPRLPRPRPRPCQPPRP	-0.378
RRIRVRPPRLPRPRPRPFGSPRP	-0.137
RRIRYRPPRLPRPRPRPAYAPRP	-0.236
RRIRARPPRLPRPRPRPFDEPRP	0.194
RRIRDRPPRLPRPRPRPAARPRP	0.518
RRIRCRPPRLPRPRPRPYGRPRP	-0.114

Sequence	shrunken log2 fold change
RRIRKRPPRLPRPRPRPWIQPRP	-0.01
RRIRHRPPRLPRPRPRPDGVPRP	0.0513
RRIRFRPPRLPRPRPRPECWPRP	0.675
RRIRKRPPRLPRPRPRPLCEPRP	0.446
RRIRFRPPRLPRPRPRPLKQPRP	0.053
RRIRARPPRLPRPRPRPMRLPRP	1.29
RRIRPRPPRLPRPRPRPYDWPRP	0.0551
RRIRCRPPRLPRPRPRPRYPPRP	-0.00708
RRIRNRPPRLPRPRPRPVTWPRP	-0.0637
RRIRWRPPRLPRPRPRPHKPPRP	-0.119
RRIRYRPPRLPRPRPRPMENPRP	-0.207
RRIRPRPPRLPRPRPRPFIMPRP	-0.426
RRIRTRPPRLPRPRPRPHEIPRP	0.00283
RRIRDRPPRLPRPRPRPTYEPRP	0.127
RRIRDRPPRLPRPRPRPTMSPRP	0.0526
RRIRVRPPRLPRPRPRPQEQPRP	0.0925
RRIRERPPRLPRPRPRPWAFPRP	-0.165
RRIRYRPPRLPRPRPRPVVIPRP	-0.868
RRIRNRPPRLPRPRPRPHQKPRP	0.0226
RRIRKRPPRLPRPRPRPQNVPRP	-0.0694
RRIRTRPPRLPRPRPRPNQCPRP	0.00866
RRIRKRPPRLPRPRPRPNTAPRP	0.159
RRIRRRPPRLPRPRPRPFWDPRP	-0.0897
RRIRVRPPRLPRPRPRPVFNPRP	-0.392
RRIRIRPPRLPRPRPRPALTPRP	0.0227

Sequence	shrunken log2 fold change
RRIRVRPPRLPRPRPRPVELPRP	0.104
RRIRVRPPRLPRPRPRPLPLPRP	0.0752
RRIRMRPPRLPRPRPRPNYSPRP	-0.416
RRIRERPPRLPRPRPRPWPSPRP	0.134
RRIRARPPRLPRPRPRPFLDPRP	0.116
RRIRRRPPRLPRPRPRPHCHPRP	-0.134
RRIRNRPPRLPRPRPRPCVDPRP	0.037
RRIRGRPPRLPRPRPRPKTLPRP	0.872
RRIRLRPPRLPRPRPRPERWPRP	0.637
RRIRYRPPRLPRPRPRPHWFPRP	-0.402
RRIRMRPPRLPRPRPRPYLVPRP	-0.016
RRIRSRPPRLPRPRPRPPICPRP	0.635
RRIRRRPPRLPRPRPRPQKWPRP	0.136
RRIRMRPPRLPRPRPRPLIWPRP	0.246
RRIRQRPPRLPRPRPRPCGCPRP	0.164
RRIRHRPPRLPRPRPRPQHEPRP	-0.191
RRIRYRPPRLPRPRPRPDADPRP	0.00911
RRIRARPPRLPRPRPRPTMGPRP	0.469
RRIRPRPPRLPRPRPRPPHGPRP	0.374
RRIRDRPPRLPRPRPRPIRSPRP	-0.00822
RRIRYRPPRLPRPRPRPWCQPRP	-0.243
RRIRFRPPRLPRPRPRPRYRPRP	-0.4
RRIRDRPPRLPRPRPRPVAGPRP	0.851
RRIRRRPPRLPRPRPRPESDPRP	0.6
RRIRLRPPRLPRPRPRPDQFPRP	0.0392
